Assay results reported in IntAct's records for PubMed 21360678.

B1: Serine/threonine-protein phosphatase 5 (Homo sapiens), P53041 (parent)
chain: MAMAEGERTECAEPPRDEPPADGALKRAEELKTQANDYFKAKDYENAIKFYSQAIELNPSNAIYYGNRSLAYLRTECYGYALGDATRAIELDKKYIKGYYRRAASNMALGKFRAALRDYETVVKVKPHDKDAKMKYQECNKIVKQKAFERAIAGDEHKRSVVDSLDIESMTIEDEYSGPKLEDGKVTISFMKELMQWYKDQKKLHRKCAYQILVQVKEVLSKLSTLVETTLKETEKITVCGDTHGQFYDLLNIFELNGLPSETNPYIFNGDFVDRGSFSVEVILTLFGFKLLYPDHFHLLRGNHETDNMNQIYGFEGEVKAKYTAQMYELFSEVFEWLPLAQCINGKVLIMHGGLFSEDGVTLDDIRKIERNRQPPDSGPMCDLLWSDPQPQNGRSISKRGVSCQFGPDVTKAFLEENNLDYIIRSHEVKAEGYEVAHGGRCVTVFSAPNYCDQMGNKASYIHLQGSDLRPQFHQFTAVPHPNVKPMAYANTLLQLGMM
partner: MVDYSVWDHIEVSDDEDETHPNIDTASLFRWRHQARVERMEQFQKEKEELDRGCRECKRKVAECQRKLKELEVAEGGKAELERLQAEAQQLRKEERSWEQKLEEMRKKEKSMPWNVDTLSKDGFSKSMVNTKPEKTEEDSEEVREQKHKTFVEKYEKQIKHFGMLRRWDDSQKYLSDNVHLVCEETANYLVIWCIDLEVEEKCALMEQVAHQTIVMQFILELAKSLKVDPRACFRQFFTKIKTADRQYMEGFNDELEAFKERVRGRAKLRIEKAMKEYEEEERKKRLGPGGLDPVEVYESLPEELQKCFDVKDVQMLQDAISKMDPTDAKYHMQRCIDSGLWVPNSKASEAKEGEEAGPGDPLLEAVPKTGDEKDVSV

Variants of: B1
Settings: with cdc37_human CDC37, Q16543

| Variant | effect of a mutation on the interaction |
| --- | --- |
| MAMAEGERTECAEPPRDEPPADGALKRAEELKTQANDYFKAKDYENAIKFYSQAIELNPSNAIYYGNRSLAYLRTECYGYALGDATRAIELDKKYIAGYYARAASNMALGKFRAALRDYETVVKVKPHDKDAKMKYQECNKIVKQKAFERAIAGDEHKRSVVDSLDIESMTIEDEYSGPKLEDGKVTISFMKELMQWYKDQKKLHRKCAYQILVQVKEVLSKLSTLVETTLKETEKITVCGDTHGQFYDLLNIFELNGLPSETNPYIFNGDFVDRGSFSVEVILTLFGFKLLYPDHFHLLRGNHETDNMNQIYGFEGEVKAKYTAQMYELFSEVFEWLPLAQCINGKVLIMHGGLFSEDGVTLDDIRKIERNRQPPDSGPMCDLLWSDPQPQNGRSISKRGVSCQFGPDVTKAFLEENNLDYIIRSHEVKAEGYEVAHGGRCVTVFSAPNYCDQMGNKASYIHLQGSDLRPQFHQFTAVPHPNVKPMAYANTLLQLGMM [K97A;R101A] | disrupting interaction |
